Assay [1] concerns db/db mice. Briefly: Effect on blood glucose in vivo, subchronic study in db/db mice. The note with it: F1 0.5 mg/kg, G1 30 nmol/kg or both. The procedure: This subchronic in vivo dosing study investigates the effect of GLP-1 and FGF21 compounds on blood glucose. The study was performed in db/db mice (as described in Example 5).
48 db/db mice, male, 11-12 weeks of age at study start.
Dosed subcutaneously 2 × daily with either (i) 0.5 mg/kg human FGF21 (compound F1; n=12); (ii) 30 nmol/kg of GLP-1 compound G1 (n=12); (iii) a combination of 0.5 mg/kg of compound F1 and 30 nmol/kg of compound G1 (n=12); or (iv) vehicle (sterile PBS buffer, n=12).
All groups were dosed for 21 days.
Blood samples of 10 μl were taken from the tip of the tail for blood glucose measurements once weekly.

The test system of assay [2] is db/db mice. Briefly: Effect on blood glucose in vivo, acute study in db/db mice. The note with it: compound F1 0.125 mg/kg s.c. 1 × daily for 3 days and/or compound G4 1 nmol/kg s.c. one hour after last FGF21 dose, 0-48 hours post GLP-1 dose. The procedure:
This acute in vivo study investigates the effect of FGF21 and GLP-1 compounds on blood glucose levels of db/db mice.
The db/db mouse is a hyperglycaemic, hyperinsulinaemic, hyperphagic and obese model of type 2 diabetes.
23 db/db mice (Male, C57BLKS db/db, from Taconic, Denmark, 15-16 weeks of age).
Dosed subcutaneously 1 × daily with 0.125 mg/kg human FGF21 (n=11) (compound F1) or vehicle (n=12) for 3 days. Vehicle was sterile PBS-buffer (DPBS, Gibco, cat. no. 14190).
Both groups of animals were then dosed with either vehicle or GLP-1 compound G4 at 1 nmol/kg (n=5-6). The G4 compound is a GLP-1 analogue which has an extended half-life due to its derivatisation with an albumin binder. The GLP-1 or vehicle dose was given subcutaneously one hour after the last FGF21 or vehicle dose.
Blood samples of 10 μl were taken from the tip of the tail for the measurement of blood glucose from 0-48 hours post dose of the GLP-1 compound.
Results were analysed using the area under the glucose curve (AUC) for the vehicle group, the GLP-1 group, the FGF21 group and the combined group.
The expected AUC was calculated using the following formula: […]
AUCvehicle−((AUCvehicle−AUCFGF212)+(AUCvehicle−AUCGLP-1))

The subject of assay [3] is rat insulinoma beta-cells (INS-1). Kind of assay: Cell viability of INS-1 beta-cells exposed to free fatty acids (MTT assay). To be noted: 48 hours, FGF21 compound = F1 50 nM, GLP-1 compound = G1 50 nM, mean +/- SEM. The class given is cell-based. The procedure: (§1) This ex vivo example investigates the influence of FGF21 and GLP-1 compounds on FFA (free fatty acid) induced apoptosis of rat insulinoma beta-cells (INS-1).
(§2) Compound F1 (Prospec, cat. no. CYT-474) was used as the FGF21 compound, and compound G1 was used as the GLP-1 compound.
(§3) INS-1 cells were seeded in 96-well plates (50000 cells/well) and incubated overnight in cell medium (RPMI 1640 medium (Gibco, cat. no. 61870-010), supplemented with 10% FCS (Gibco, cat. no. 10085-140), 1% Pen/Strep (Gibco, cat. no. 15140-114) and 0.5 ml beta-mercaptoethanol (Gibco, cat. no. 31350-010 (50 mM)). The FGF21 compound (50 nM) and the GLP-1 compound (50 nM) were added to the cells 1 hour before the cells were to be exposed to FFA. The FFA's were prepared as follows: Stock solutions of palmitic acid (Sigma P5585) and oleic acid (Sigma 01383) of 1M in DMSO were mixed 1:2 and heated to 60 degree Celsius. The FFA mix was then diluted 10 times in 0.1M NaOH. This mixture was then further diluted in cell medium to yield a FFA concentration of 1 mM. The FFAs were then added to the cells to a final concentration of 0.35 mM. […]
On the technique in general: Tetrazolium assays rely on reduction of a dye to a coloured formazan, in cell work by metabolically active cells.

The test system is the same in assay [4]. Kind of assay: FFA induced apoptosis of INS-1 beta-cells (Caspase-3/7 assay). The class given is cell-based. The note with it: 48 hours, FGF21 compound = F1 50 nM, GLP-1 compound = G1 50 nM, mean +/- SEM. The procedure:
as §1, §2, §3

The test system is the same in assay [5]. Briefly: Insulin accumulated in the medium of INS-1 cells during 48 hour incubation with FFA. The class given is cell-based. The note with it: for Insulin accumulated in the medium: 48 hours, FGF21 compound = F1 50 nM, GLP-1 compound = G1 50 nM, mean +/- SEM. The procedure:
as §1, §2
INS-1 cells were seeded in 96-well plates (50000 cells/well) and incubated overnight in cell medium (RPMI 1640 medium (Gibco, cat. no. 61870-010), supplemented with 10% FCS (Gibco, cat. no. 10085-140), 1% Pen/Strep (Gibco, cat. no. 15140-114) and 0.5 ml beta-mercaptoethanol (Gibco, cat. no. 31350-010 (50 mM)). The FGF21 compound (50 nM) and the GLP-1 compound (50 nM) were added to the cells 1 hour before the cells were to be exposed to FFA. The FFA's were prepared as follows: Stock solutions of palmitic acid (Sigma P5585) and oleic acid (Sigma 01383) of 1M in DMSO were mixed 1:2 and heated to 60 degree Celsius. The FFA mix was then diluted 10 times in 0.1M NaOH. This mixture was then further diluted in cell medium to yield a FFA concentration of 1 mM. The FFAs were then added to the cells to a final concentration of 0.35 mM. The cells were incubated for 48 hours and then the following three assays were performed: 1) Cell viability was assessed using the CellTiter 96® Non-radioactive Cell Proliferation Assay (MTT) from Promega, performed according to the manufacturer's instruction (absorbance at 550 nm, A550); 2) Apoptosis was assessed using the Apo-ONE® Homogeneous Caspase-3/7 Assay from Promega, performed according to the manufacturer's instruction (fluorescence); and 3) Insulin accumulated in the medium during the 48 hour incubation with FFA was analysed (as described in Example 3; ng/ml insulin).
The results of 1), 2) and 3) are shown in Tables 4, 5, and 6 below, respectively, all figures being mean+/−standard error of mean (SEM). […]

B1: Met-FGF21_human (protein, listed as Homo sapiens)
chain: HPIPDSSPLLQFGGQVRQRYLYTDDAQQTEAHLEIREDGTVGGAADQSPESLLQLKALKPGVIQILGVKTSRFLCQRPDGALYGSLHFDPEACSFRELLLEDGYNVYQSEAHGLPLHLPGNKSPHRDPAPRGPARFLPLPGLPPALPEPPGILAPQPPDVGSSDPLSMVGPSQGRSPSYAS
modifications: N-terminal Met; mat_peptide (1)..(181); DISULFID (75)..(93)
With B1, the Blood glucose with db/db mice [1] (Day 0, s.c. 2 × daily) came out at 19.9 ± 1.2 mmol/L; in the assay with db/db mice [1] (Day 7, s.c. 2 × daily) it was 17.2 ± 1.3 mmol/L; in the assay with db/db mice [1] (Day 14, s.c. 2 × daily), 16.2 ± 1.8 mmol/L; in the assay with db/db mice [1] (Day 21, s.c. 2 × daily), 19.2 ± 3.0 mmol/L. In addition, in the assay with db/db mice [2], the “Glucose lowering capacity (AUC), blood glucose AUC0-48 h, mean” value came to 389.8 mM·min. Also, the entries for the “Cell viability (MTT assay, A550)” value in assay [3] (FFA 0.00 mM) and in assay [3] (FFA 0.35 mM) were 1.19 +/− 0.05 and 0.28 +/− 0.01, respectively. Moreover, the “Apoptosis (Caspase 3/7 assay, fluorescense)” value in assay [4] (FFA 0.00 mM) is 1827 +/− 22; in assay [4] (FFA 0.35 mM), 33278 +/− 1254. Also, the “Insulin accumulated in the medium” value worked out at 1011 ± 112 ng/mL in assay [5] (FFA 0.00 mM) and 569 ± 14 ng/mL in assay [5] (FFA 0.35 mM). In addition, the “stimulation of insulin release” value in assay [5] (absence of free fatty acids, F1 50 nM) was “does not stimulate insulin release”.

For the origin of these results see US20120172298A1, “GLP-1 AND FGF21 COMBINATIONS FOR TREATMENT OF DIABETES TYPE 2” (Novo Nordisk A/S, priority 2009, published 2012).
